Reference: the nanobody polyreactivity screen of Harvey et al. (2022)

Test: yeast display, Sf9 membrane polyspecificity reagent, FACS + sequencing; frameworks hold sequencing errors
In short: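 After 36–48 hours of galactose induction, yeast (Saccharomyces cerevisiae BJ5465) displaying a synthetic nanobody library were stained at 4 °C for 1 hour with 10% biotinylated, detergent-solubilized Sf9 membrane reagent. Streptavidin microbeads enriched the stained cells before FACS sorting into low and high (top ~1%) gates on anti-HA and streptavidin fluorescence. Each clone's polyreactivity label reflects its gate of origin.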

Question: Which “polyreactivity (PSR sort gate)” value does the source give for “QGQLVESGGGLVQAGGSLRLSCAASGRTFYLNAMGWYRQAPGKERELVAAINRGTRTYYADSVKGRFTISRDNAKNTVFLQMNSLKPDETAVYYCASVPRYYYSSSYTMDYWGQGTQVTVSS” here?
Answer: high polyreactivity

Question: With “QGQLVESGGGLVQAGGSLRLSCAASGRTLYYYAMGWYRQAPGKERELVASIDWDSGITDYADSVTGRFTISRANAKNTVYLQMNILTPEDTAVYYCAAVRVTKKYSYEYWGQGTQVTVSA” as the sequence, how does the “polyreactivity (PSR sort gate)” value read?
Answer: low polyreactivity

Question: Which “polyreactivity (PSR sort gate)” value does the source give for “QGQLVESGGGLVQAGGSLRLSCAASGSIFLTNAMGWYRQAPGKEREFVAAIDWGGTITYYADSVKGRFTISRDNAKNTVYLQMNSLKPEDTAVYYCNRVFPPTDYEFDSWGQGTQGTVSS” here?
Answer: low polyreactivity

Question: For “QGQLVESGGGLVQAGGSLRLSCAASGSIFPGYTMGWYRQAPGKERELVAVISSDGRTHYADSVKGRFTISRDNAKNTVYLQMNSLKPEDSAVYYCAAAKRAYGYVLHAFYYWGQGTQVTVSS”, which “polyreactivity (PSR sort gate)” value is on record?
Answer: high polyreactivity

Question: Which “polyreactivity (PSR sort gate)” value does the source give for “QGQLVESGGGLVQAGGSLRLSCAASGSIFPRYVMGWYRQAPGKERELVAAITTSGGRTYYADSVKGRFTISRDNAKKTVYLQMNSQKPVDTAVYYCAARPWGYRYGSEYVGGDYWGQGTQVTVSS” here?
Answer: high polyreactivity

Question: Which “polyreactivity (PSR sort gate)” value does the source give for “QGQLVESGGGLVQAGGSLRLSCAASGSIFSSNAMGWYRQAPGKQRELVAAIDWDSGSTSYADSVKGRFTISRDNAKNTVYLQMISLKPEDTAVFYCAADEVLSGYYTLDYWGQGTQVTVSS” here?
Answer: low polyreactivity

Question: For “QGQLVESGGGLVQAGGSLRLSCAASGSIFSVNTMGWYRQAPGKERELVATIRTGDSTNYADSVKGRFTISRDNAKNTVYLQMNSLKPEDTAVYYCAADWSSLNFDYWGQGTQVTVSS”, which “polyreactivity (PSR sort gate)” value is on record?
Answer: low polyreactivity

Question: For “QGQLVESGGGLVQAGGSLRLSCAASGSIFWDNVMGWSRQAPGKERELVADIDSWDGGSTYYADSVKGRFTISRDNAKNTVYLQMHSRKPEDTAVYYCNTDVLWWRGGDDFWGQGTQVTVSS”, which “polyreactivity (PSR sort gate)” value is on record?
Answer: low polyreactivity

Question: For “QGQLVESGGGLVQAGGSLRLSCAASGSILLYYAMGWYRQAPGKEWELVAAITGGGGTNYADAGKGRFTISRDNAKNTVYLQMNSLIPEDTAVYYCAADPSGQFPYSYYNYDYDYWGQGTQVTVSS”, which “polyreactivity (PSR sort gate)” value is on record?
Answer: low polyreactivity

Question: Which “polyreactivity (PSR sort gate)” value does the source give for “QGQLVESGGGLVQAGGSLRLSCAASGSILRSYAMGWSIQAPRKVRELVATITRSAGRTYYADSVKGRFTISRDNAKNTVYLQMNSLKPEDTALYYCAACYCDTETGYREYDYWGQGTQVNVSS” here?
Answer: low polyreactivity

Question: For “QGQLVESGGGLVQAGGSLRLSCAASGSTFGYNVMGWYRQATGKERELVAAINYSGVRTYYADSVKGRFTISRDNAKNTVYLQMNSLIPEDTAVYYCNATPTRAVGPYQYNYWGQGTQVTVSS”, which “polyreactivity (PSR sort gate)” value is on record?
Answer: high polyreactivity

Question: With “QGQLVESGGGLVQAGGSLRLSCAASGSTFQGYAMGWYRQAPGKERELVAAISGRSGSTYYADSVKGRFTISRDNAKNTVYLQMNSLKPEDTADYYCAAGIPFRQRLRRYYYWGQGSQVTVSS” as the sequence, how does the “polyreactivity (PSR sort gate)” value read?
Answer: high polyreactivity

Question: Which “polyreactivity (PSR sort gate)” value does the source give for “QGQLVESGGGLVQAGGSLRLSCAASGSTFTSSAMGWSRQGPGKERELVAAISRSGGRTYYADSVKGRFTISRDNAKTTVYLQMNSQKPEDTAVYYCAADRSRWGQGTQVTVSS” here?
Answer: high polyreactivity

Question: Which “polyreactivity (PSR sort gate)” value does the source give for “QGQLVESGGGLVQAGGSLRLSCAASGSTFVYYARGWYRQAPGKEREMVAAIRYSGASTYYADSVKGRFTISRDNAKNTVYLQMNSLKPEDTAVYYCAAQPTTRRVPRFSSRARHYYWGQGTQVTVSS” here?
Answer: high polyreactivity

Question: Which “polyreactivity (PSR sort gate)” value does the source give for “QGQLVESGGGLVQAGGSLRLSCAASGSTVSYNAMGCSRPARGKERALVAAISSGGRTYYADSVKGRFTISRDNAKKTVYFQMNSLKPEDTAVYYCAVYETHWGYWYELDYWGQGTQVTVSS” here?
Answer: high polyreactivity

Question: Which “polyreactivity (PSR sort gate)” value does the source give for “QGQLVESGGGLVQAGGSLRLSCAPSGGTFEFYTMGWYRQAPGKERELVAVINASGDSTYYADSVKGRFTISRDNAKNTVYLQMNSLKPEDTAVYYCAADHRGEYDYWGQGTQVTVSS” here?
Answer: low polyreactivity

Question: Which “polyreactivity (PSR sort gate)” value does the source give for “QGQLVESGGGLVQAGGSLRLSCDASGSTFFENTMGWYRQAHGQERELVAAITSGGGRPYYADSVKGRFTISRDNAKNTVYLQLNSLKPEETAVYYCAARARYTRRGRHYDYWGQGTQVTVSS” here?
Answer: high polyreactivity

Question: With “QGQLVESGGGLVQAGGSLRLSSAASGSTHALYTMGWYRQARGKARQLVAAISKNGGRTYYADSVKGRFTISRDNAKNTVYVQMNSLKPEDTAVYYCAAASGSYRGYDYWGQGTQVTVSS” as the sequence, how does the “polyreactivity (PSR sort gate)” value read?
Answer: high polyreactivity

Question: Which “polyreactivity (PSR sort gate)” value does the source give for “QGQLVESGGGLVQAGGSLRLTCAASGSNFVQNAMGWYRPAPGKERELVAVSNSGDSTNYADSVKGRFTISRDNAKNTVYLHMNSLKPEDNAVYYCAVDDVSYYYLRAYNYELSWYGSGLDYWGQGTQVTVSS” here?
Answer: low polyreactivity

Question: Which “polyreactivity (PSR sort gate)” value does the source give for “QGQLVESGGGLVQAGGSLRLTCAASGSTFRWNVMGWYRQAPGKERELVAAISSTGDNTYYADSVKGRFTISRDNAKNTGYLQMNSLKPEDTAVYYCAAGRGARDRARKHGYWGQGTQVTVSS” here?
Answer: high polyreactivity

Question: With “QGQLVESGGGLVQAGGSLSLSCAASGFIFSGYAMGWYRQAPGKERELVAAISTRGGRTYYADSVKGRFTISRDNAKNTVYLQMNSLKPEDTAVYYCAADSLYPELDYWGQGTQVTVSS” as the sequence, how does the “polyreactivity (PSR sort gate)” value read?
Answer: high polyreactivity

Question: With “QGQLVESGGGLVQAGVSLRLSCAASGSTFRDYAMGWYRQAPGKERELVASITSGGSTNYADSVKGRFTISRDNAKNTVYLQMNSLKPEDTAVYYCGAESMPRWFVRYDYWGQGTQVTVSS” as the sequence, how does the “polyreactivity (PSR sort gate)” value read?
Answer: low polyreactivity

Question: Which “polyreactivity (PSR sort gate)” value does the source give for “QGQLVESGGGLVQAVGSLRLSCAASGITLRIYAMGWYRQAPGKEREMVAGITSGGSTNYADSVKGRFTLSRDNAKNTVYLQMNSLKPEDTAVYYCAARQVRTSKLHMGYWGQGTQVTVSS” here?
Answer: low polyreactivity

Question: With “QGQLVESGGRLVQAGGSLRLSCAASGRIFGWYDMGWYREEPGKERELVAAINWSGGSTYYADSVKGRFTISRDNEKNTFYLQMNCLKPEDTAVYYCAADVAQVGYQVGVSEIYPGYEYWGQGTQVNVSS” as the sequence, how does the “polyreactivity (PSR sort gate)” value read?
Answer: low polyreactivity

Question: With “QGQLVESWGGLVQAGGSLRLSCAASGRIFYGYVMGWYREAPGKERELVAAINHSGTSTYYADSVKGRFTISRDIAKNTVYLQMNIMKPEDTAVYYCAADQVGWTYDYWGQGTQVTVSS” as the sequence, how does the “polyreactivity (PSR sort gate)” value read?
Answer: low polyreactivity

Question: Which “polyreactivity (PSR sort gate)” value does the source give for “QGQLVESWGGLVQAGGSLRLSCAASGSTFVFNAMGWYRQAPGKERELVAAISIDGSTNYADSVKGRFTISRDNAKNTVYLQMNSLEPEDTAVYYCNAKRYGFFYWQGDYWGQGTQVTVSS” here?
Answer: low polyreactivity

Question: With “QGQLVETGGGLVQAGGSLRLSCGASGSTFLWNTIGWYRQGPRKERELVAEIRTSGGGTYYADSVKGRFTISRDNAKNTVYLQMNSLKPEDTEVYYCYADPKWEMGSWGQGTQVTVSS” as the sequence, how does the “polyreactivity (PSR sort gate)” value read?
Answer: low polyreactivity

Question: Which “polyreactivity (PSR sort gate)” value does the source give for “QGQRVESGGGLVQAGGSLRLSCAASGFIFAHNAMGWYRPAPGTETEFVAAISANTGNTYYADSVKGRFTISRDNAKNTVYLQMNSLKPEDTAVYYCRSFYYWGQGTQVTVSS” here?
Answer: high polyreactivity

Question: With “QGQRVESGGGLVQAGGSLRLSCAASGSTFEDNAMGWSRPAPGKERELVAAITTGGGSTYYADSVKGRFTISRDNAKNTVYLQMNSLKPEDTAVYYCAADWSYYYSRNYESDYWGQGTQVTVSS” as the sequence, how does the “polyreactivity (PSR sort gate)” value read?
Answer: low polyreactivity

Question: Which “polyreactivity (PSR sort gate)” value does the source give for “QHQLGESGGGLVQAGGRLRLSCAASGRIFHVSAMGWYREAPGKERELVAAISSGDRTYYADSGKGRFIISRDNAKNSVYLQLNSLKPEDTAVYYCWRYPAAESNYWGQGTQVTVSS” here?
Answer: low polyreactivity

Question: For “QHQLVESGGGLVQAGGSLRLSCAASGSIFWRYVMGWYRPAPGKERELVAAISSGGGITYYADSVTGRFTISRDTAKNTLYLQMNSLKPEDTAVYYCAAYGSLSPKYGYWGQGTQVNVSS”, which “polyreactivity (PSR sort gate)” value is on record?
Answer: high polyreactivity

Question: With “QLHLVESGGGLVQAGGSLRLSCAASGYIFNYNAMGWSRQAPGTQREFVAAISQGGGSTYYADSVKGRFTISRDNSKYTVYLQMNRLKPEDTAVYYCAADYRSGYREMDYWGQGTQVTVSS” as the sequence, how does the “polyreactivity (PSR sort gate)” value read?
Answer: low polyreactivity

Question: For “QLHLVESGGGLVQAGGSLRLSCAGSGFTFGHSAMGWYRQAPGNDRELVASITWSGGSTYYADSVKGRFTISRDNAKNTVYLQMNSRKPEDTAVYYCNAQERRVRDYDYWGQGTQVTVSS”, which “polyreactivity (PSR sort gate)” value is on record?
Answer: low polyreactivity

Question: With “QLQHVESGGGLVQAGGSLRLSCAASGRTFWYYAMGWYRQAPGTESELVAAISRGGGSTYYADSVKGSFTISRDTAKNTVYLQMNILKPEDTAVYYCAVASDYRGYYYWGQGTQVTVSS” as the sequence, how does the “polyreactivity (PSR sort gate)” value read?
Answer: high polyreactivity

Question: For “QLQHVESRRGLVQAGGSLRLSCAASGLTFVGYAMGWYRQAPGKERELGAAISGVGTTNYADSVKGRFTISRDNAKNTVYFQMNSLKPEDSAVYYCAKAPYPVPYGLYDYWGQGTQVTVSS”, which “polyreactivity (PSR sort gate)” value is on record?
Answer: low polyreactivity

Question: Which “polyreactivity (PSR sort gate)” value does the source give for “QLQIVESGGGLVQAGGSLRLISAASGSTLAYYAMGWYRQEPGKERELVAAINWRTYYADSVKGRFTISRDNAMNTLYLQMNSLKPEDTAVYYCAAGYYLNKFYYWGQGTQVTVSS” here?
Answer: high polyreactivity

Question: Which “polyreactivity (PSR sort gate)” value does the source give for “QLQLDESRGGLVQAGRSLRLSCAASGGNFRYYAMGWYRQAPGKERELDAAISSGGSTNYADSVKVRFTISRDNAKNTVYLQMNSLKREDTAVYYCAADVIYYYAYYTYDYWGQGTQVTVSS” here?
Answer: low polyreactivity

Question: Which “polyreactivity (PSR sort gate)” value does the source give for “QLQLEESCGGLVQAGGSLRLSCAATGFIFGKYAMGWYRQAPGKQREFVAAITRSGGSTYYADSVKGRVTISRDNAKNTVFLQMFCLKPEDTAVYYCNARISERGWRYYYWGHGTQVTVSS” here?
Answer: high polyreactivity

Question: For “QLQLEESGGGLVQAGGSLRLSCAAYGSIYYYNGMGWYRQAPAKERELVAAISSSGGRTYYADSVKGRFTISRDNENNTVYLQMNSLKPEDPAVYYCYDSGFGKTGFGYDYWGQGTQVTVSS”, which “polyreactivity (PSR sort gate)” value is on record?
Answer: low polyreactivity

Question: For “QLQLEESGGGLVQAGGSLRLSSAASGRTFYYYAIGWYRQAPGKERELVAAISRGGSTYYADSVKGRFTISRDNAKITVYLQMHSLKPEDTAVYYCAAVLRPDRYDYWGQGTQVTVSS”, which “polyreactivity (PSR sort gate)” value is on record?
Answer: high polyreactivity

Question: For “QLQLHESGGVQAGGSLRLSCAAGGYISRSDVMGWYRQAPGKERELVATINNGTITYYADSVKGRFNISRDNAKNTVYLQMNSLKREDTAVHYWAVVQSDCDSLYYWGQGTQVTVSS”, which “polyreactivity (PSR sort gate)” value is on record?
Answer: low polyreactivity
